Source: publication PMC10026030, “A short-chain acyl-CoA synthetase that supports branched-chain fatty acid synthesis in Staphylococcus aureus” (The Journal of Biological Chemistry, 2023)
Where two headings read alike, the source gives them in different places.

Tests used:
[1] = biological target: T1, MbcS (methylbutyryl-CoA synthetase; SAUSA300_2542) (Staphylococcus aureus, UniProt A0A0H2XHR6); experiment: LC-MS/MS of acyl-CoA product, Michaelis-Menten fit; conditions: 2.5 mM ATP, 2.5 mM Mg2+, 200 μM CoA, Tris pH 7.5, 37 °C
T1 sequence (A0A0H2XHR6 1-532): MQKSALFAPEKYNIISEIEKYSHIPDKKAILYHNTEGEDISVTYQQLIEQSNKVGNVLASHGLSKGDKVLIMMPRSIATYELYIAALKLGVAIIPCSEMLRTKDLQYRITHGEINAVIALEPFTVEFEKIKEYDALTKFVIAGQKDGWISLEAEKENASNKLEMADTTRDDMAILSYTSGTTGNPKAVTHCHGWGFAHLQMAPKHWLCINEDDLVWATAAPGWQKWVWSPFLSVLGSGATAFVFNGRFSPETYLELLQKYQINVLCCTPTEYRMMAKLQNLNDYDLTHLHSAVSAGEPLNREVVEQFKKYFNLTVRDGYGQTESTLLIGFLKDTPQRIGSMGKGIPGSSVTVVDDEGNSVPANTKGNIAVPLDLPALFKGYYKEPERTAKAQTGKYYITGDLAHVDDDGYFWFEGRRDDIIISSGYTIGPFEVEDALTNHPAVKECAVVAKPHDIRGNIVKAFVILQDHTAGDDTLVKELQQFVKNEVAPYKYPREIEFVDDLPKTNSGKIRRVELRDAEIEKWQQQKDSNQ

purified protein [2] = substrate: CCCC(=O)O; experiment: purified protein; conditions: 2.5 mM ATP, 2.5 mM Mg2+, 200 μM CoA, Tris pH 7.5, 37 °C
purified protein [3] = substrate: Nc1ncnc2c1ncn2[C@@H]1O[C@H](COP(=O)(O)OP(=O)(O)OP(=O)(O)O)[C@@H](O)[C@H]1O; experiment: purified protein; conditions: 2.5 mM Mg2+, 200 μM CoA, 50 μM aC5, Tris pH 7.5, 37 °C
purified protein [4] = substrate: CC(C)(COP(=O)(O)OP(=O)(O)OC[C@H]1O[C@@H](n2cnc3c(N)ncnc32)[C@H](O)[C@@H]1OP(=O)(O)O)[C@@H](O)C(=O)NCCC(=O)NCCS; experiment: purified protein; conditions: 2.5 mM ATP, 2.5 mM Mg2+, 50 μM aC5, Tris pH 7.5, 37 °C

## CC(C)CC(=O)O [iC5, isovalerate]
[1]
  Km: > 500 µM

## CC(C)C(=O)O [iC4, isobutyrate]
[1]; read-out: apparent KM
  Km: < 10 µM

B1: MbcS (methylbutyryl-CoA synthetase; SAUSA300_2542) (Staphylococcus aureus subsp. aureus USA300) (protein)
chain: MQKSALFAPEKYNIISEIEKYSHIPDKKAILYHNTEGEDISVTYQQLIEQSNKVGNVLASHGLSKGDKVLIMMPRSIATYELYIAALKLGVAIIPCSEMLRTKDLQYRITHGEINAVIALEPFTVEFEKIKEYDALTKFVIAGQKDGWISLEAEKENASNKLEMADTTRDDMAILSYTSGTTGNPKAVTHCHGWGFAHLQMAPKHWLCINEDDLVWATAAPGWQKWVWSPFLSVLGSGATAFVFNGRFSPETYLELLQKYQINVLCCTPTEYRMMAKLQNLNDYDLTHLHSAVSAGEPLNREVVEQFKKYFNLTVRDGYGQTESTLLIGFLKDTPQRIGSMGKGIPGSSVTVVDDEGNSVPANTKGNIAVPLDLPALFKGYYKEPERTAKAQTGKYYITGDLAHVDDDGYFWFEGRRDDIIISSGYTIGPFEVEDALTNHPAVKECAVVAKPHDIRGNIVKAFVILQDHTAGDDTLVKELQQFVKNEVAPYKYPREIEFVDDLPKTNSGKIRRVELRDAEIEKWQQQKDSNQ
Purified protein [2]
  Km: 144 µM
Purified protein [3]
  Km: 3.2 ± 0.2 µM
Purified protein [4]
  Km: 49.3 ± 6.9 µM
